Series [1] can be described thus: Dynamic Light Scattering, Example 5. The following applies: for Polydispersity index (PDI): DLS; for Particle size (nm) DLS: size as measured by intensity, 1-4 1 mg/mL, 5-11 2 mg/mL in PBS. The series is classed as physicochemical. How it is done:
Dynamic Light Scattering. Individual compounds 1-4 (1 mg/mL in PBS) and 5-11 (2 mg/mL in PBS) were analyzed using DLS to measure particle size (zeta intensity) and PDI. The samples were treated with ultrasonication for 30 min, then transferred into disposable cuvettes. Measurement were taken at 25° C. and […] light scattering. DLS measurements were taken using a Zetasizer Nano ZP instrument (Malvern Instrument, UK) with Malvern Zetasizer Analyser 6.2 software.

The nature of series [2]: Transmission Electron Microscopy, Example 5. As to conditions: negative staining; NP = nanoparticles, CLANs = chain like aggregates of nanoparticles. Format: physicochemical. The text has this:
Transmission Electron Microscopy. Particle-imaging was captured using a JEM-1010 TEM (HT7700 Exalens, HITACHI Ltd., JEOL Ltd., Japan) operated at 80 kV, using negative staining. Samples of compounds 1-11 (1:2 dilution of samples prepared for DLS analysis) were applied to glow-discharged carbon-coated copper 200-mesh grids (Ted Pella) and negative-stained with 2% phosphotungstic acid.

Series [3] has as its system J8. Format: in vivo, C57BL/6 mice. The following applies: first animal study (epitope arrangement); 50 μg s.c., days 0, 21, 28, 35; listed as Conjugate 3.
Series [4] is described as follows: Characterisation of nanoliposomes by DLS, Example 2. Format: physicochemical. How it is done:
The particle size, zeta potential and polydispersity of vaccine candidates were measured by dynamic light scattering (DLS) using zetasizer (Nano ZX, Marvern, England). The particle morphology of vaccine candidates was examined using transmission electron microscope (TEM) (HT7700 Exalens, HITACHI Ltd., Japan) after vacuum-drying. Briefly, the sample were diluted in pure distilled water (1:100) and dropped directly on a glow-discharged carbon coated copper grid and then stained with 2% uranyl acetate.

Series [5] relates to E749-57 (RAHYNIVTF) peptide-specific CD8+ T-cell response. The series can be described thus: IFN-gamma ELISPOT assay. The series is classed as in vivo, C57BL/6 mice. The following applies: splenocytes ten days after immunisation, restimulated with E7 peptide. How it is done:
The mice received single dose of vaccine.
ELISPOT plates were coated with 5 μg mL-1 IFN-g capture antibody (clone) in PBS at 4° C. overnight. The plates were then blocked with RPM/20% FCs at room temperature for 3 hours. Splenocytes from C57/BL/6 mice were harvested from the spleens of naïve and immunised mice. The red blood cells were depleted using red blood cell lysing buffer (0.155 M ammonium chloride in 0.01 M Tris-HCl buffer, Sigma). Splenocytes were then resuspended in RPMI (sigma) supplemented with 20% FACs (100 UmL-1 penicillin and 100 μg mL-1 streptomycin and 50 μM b-mercaptoethanol. The cells were plated at 5×10^5 cells per well in triplicate on ELISPOT plates. E7 peptide (10 μg mL-1) was added alongside 10 ng mL-1 rhIL-2 to a final volume of 200 μL per well. Plates were incubated for 8 hours at 37 C, washed and biotinylated IFN-g detection antibody in 1% BSA added at room temperature, plates were washed again and bound cytokine was visualised with 3-amino-9ethylcarbozole. Spots were counted with an ELISPOT reader.

Series [6] concerns TC-1 tumour cells. The series can be described thus: In vivo tumour treatment experiments.
The test system of series [7] is RBD. As to conditions: 30 μg with CFA, single s.c. immunization; serum day 14.
Series [8] deals with B1. The following applies: 30 μg with CFA, single s.c. immunization.
Series [9] relates to p145. The following applies: second animal study.

The values below come from patent US20230090311A1, “SELF-ASSEMBLING, SELF-A[…] FOR […] OF VACCINES” (THE UNIVERSITY OF QUEENSLAND, priority 2020, published 2023).

“And” between values parts separate entries of the source, which are not always exact repeats. Identical values can stand only once. “Also recorded” adds a separate entry of the source. No end group written: not given here.

As for “Ac-(Ser)15-PADRE-J8 (Ac-SSSSSSSSSSSSSSSAKFVAAWTLKAAAQAEDKVKQSREAKKQVEKALKQLEDKVQ) [Compound 10]”, in series [1], the “Polydispersity index (PDI)” value is listed as 0.31 ± 0.02 and the “Particle size (nm) DLS” value was determined as 240 ± 9 nm. In addition, the “Particle size (nm) TEM” value in series [2] was 10-90 nm NP and CLANs.

As to “Ac-(Leu)15-PADRE-K-J8 (Ac-LLLLLLLLLLLLLLLAKFVAAWTLKAAAKQAEDKVKQSREAKKQVEKALKQLEDKVQ) [Compound 3]”, the “J8-specific serum IgG antibody titers” value in [3] was “significant immunoglobulin G (IgG) titers after the primary immunization; also recorded: higher antibody titers than the previously identified lead vaccine candidate (2)”.

For the substance LLLLLLLLLLQAEPDRAHYNIVTF [Leu-8Qm], in series [4] (DLS), the PDI is 0.6 and 0.6 ± 0.1; the Size worked out at 4000 ± 150 nm. Besides, the Charge in [4] (zeta potential) is −10 mV and −10 ± 5 mV. The “IFN-gamma production (ELISPOT)” value in [5] is recorded as “significantly produced IFN levels”. Further, in [6] (single dose 100 μg on day 7 after TC-1 inoculation), the “survival of tumour-bearing mice” value is listed as “increased survival rate of tumour infected mice”. Further, the “day by which tumours of all mice exceeded 1 cm^3” value in series [6] (single dose on day 7 after TC-1 inoculation) came out at 57 days.

As for AIHADQLTPTWRVYSTG [Compound B1], the “anti-RBD IgG” value in series [7] was “did not generate anti-RBD IgG”. Also, in [8], the “antibody titers against the epitope itself” value is reported as “did not generate significant antibody titers against itself”.

For “Ac-(Phe-Leu-Ala)5-PADRE-J8 (Ac-FLAFLAFLAFLAFLAAKFVAAWTLKAAAQAEDKVKQSREAKKQVEKALKQLEDKVQ) [Compound 11]”, in [1], the “Polydispersity index (PDI)” value is listed as 0.44 ± 0.02 and the “Particle size (nm) DLS” value is listed as 255 ± 9 nm. The “Particle size (nm) TEM” value in series [2] is 10-20 nm NP and CLANs.

As to “AKFVAAWTLKAAAQAEDKVKQSREAKKQVEKALKQLEDKVQ [Compound 1]”, in series [9], the “p145-specific serum IgG antibodies” value is given as “less efficient or completely unable to recognize p145”.
